Data set [1] concerns the target Human wild-type (wt) RAD51 (human) (UniProt Q06609).
The target of data set [2] is RAD51 (human, UniProt Q06609 1-339). The experiment in a line: BLI; 2 mM ATP, 2 mM Mg2+; 2 uM RAD51; BLI: 25 mM Tris-HCl pH 7.5, 50 mM KCl, 2 mM MgCl2, 200 ug/mL BSA, 0.05% Tween 20, 2 mM ATP, room temperature; curtain buffer not in the material. The conditions noted are these: protein: recombinant; tags: none stated for BLI prep; chain copies: 10; label: 5' biotin.
Sequence of RAD51 (Q06609 whole entry): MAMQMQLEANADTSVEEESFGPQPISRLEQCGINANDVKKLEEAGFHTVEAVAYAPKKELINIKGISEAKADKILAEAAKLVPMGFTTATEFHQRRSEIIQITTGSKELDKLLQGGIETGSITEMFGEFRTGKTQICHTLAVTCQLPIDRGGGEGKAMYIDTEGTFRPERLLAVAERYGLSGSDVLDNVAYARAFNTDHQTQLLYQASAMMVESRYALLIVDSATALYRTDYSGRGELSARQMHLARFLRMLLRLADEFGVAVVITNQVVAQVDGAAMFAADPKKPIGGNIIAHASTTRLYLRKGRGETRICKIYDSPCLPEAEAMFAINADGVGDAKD

Sequence of Human wild-type (wt) RAD51 (human) (Q06609 whole entry): as above

Regarding “RECQ5–F666A (from UniProt O94762 1-991) (enzyme)”, in data set [1], the processivity of unlabeled RECQ5–F666A on RAD51–ssDNA (ssDNA curtains) was determined as 5200 nt and the translocation velocity of unlabeled RECQ5–F666A on RAD51–ssDNA (ssDNA curtains) came out at 28 nt/s.

B1: dT43-mer (ssDNA)
DNA: TTTTTTTTTTTTTTTTTTTTTTTTTTTTTTTTTTTTTTTTTTT
Take B1: in data set [2], the binding result is listed as “binds”.
